Laboratory results: publication PMC3556364
Like-named read-outs stand apart in the source and are kept apart here.

Columns and labels:
[1] = target: Azotobacter vinelandii ^NifIscA (Azotobacter vinelandii); assay: SEC
[2] = target: Azotobacter vinelandii ^NifIscA (Azotobacter vinelandii); assay: SEC; remark: listed apart in the source

stoichiometry N [1]: 2
stoichiometry N [2]: 2
Substance: Azotobacter vinelandii ^NifIscA (natural protein)
